Source: publication PMC10269738

Key:
[1] = molecular target: adhesion G protein-coupled receptor Latrophilin-2 of Vero cells (African green monkey (endogenous in Vero))
[2] = molecular target: cell-surface annexin A2 of Vero cells (African green monkey (endogenous in Vero))

“avian reovirus (ARV) σC protein, strain S1133 (natural protein)” showed a virus titer in Vero cells treated with anti-ADGRL2 monoclonal antibody, against untreated samples (log units lower) [1] of 3 and a virus titer in Vero cells treated with anti-AnxA2 monoclonal antibody, against untreated samples (log units lower) [2] of 2.5.
